experiment: soluble on expression in E. coli; label from the status in PepcDB or PDB records

Sequence	soluble on expression in E. coli
MKIRSQVGMVLNLDKCIGCHTCSVTCKNVWTGREGMEYAWFNNVETKPGIGYPKNWEDQQEWQGGWVRDVNGKIRPRLGGKMGVISKIFANPVIPQIDDYYEPFTFDYQHLHNAPESKHQPTARPRSLIDGKRMDKVIWGPNWEELLGGEFEKRARDRNFDNIQKEMYGQFENTFMMYLPRLCEHCLNPSCVATCPSGAIYKREEDGIVLIDQDKCRGWRLCISGCPYKKIYFNWKSGKSEKCIFCYPRIESGQPTVCSETCVGRIRYLGVLLYDADRIEEAASTEHETDLYERQCDVFLNPHDPAVIEEALKQGIPQNVIDAAQRSPVYKMAMDWKLALPLHPEYRTLPMVWYVPPLSPIQSYADAGGLPHNGNILPAVETLRIPVQYLANMLSAGDTGPVIRALKRMMAMRHYMRSQTVEGVTDTRAIEEVGLSIQQVEEMYRYLAIANYEDRFVIPTSHREMARDAFPERNGCGFTFGDGCHGSDTKFNLFNSSRIDAINITEVRDKAEGE	not soluble
MGSDKIHHHHHHMNAPLNHPLPLLDLDVLRTFVAIAETGSFTTAANAVFRTPSAVSMQIKKLEDILGRSVFARDARSVSLTTDGEMLLGYARRLLSINREVVSKFIIPEIVGVVRLGSPDDYGERVLPHVLKRFAQSHPSIAVDVTIDQSSNLRRRMDDRALDITLLTNSYKTSALGAEVLLTEPIVWAGAKGGCAHLREPLPVSLWEEGCAWRAGALEALGREGRNYRVAYMSAHTAGQRAAIMADLAVAPLPRSFLGNDMVELCPKDGMPDIGTYNLAMVVAPDASAPVKAVADHIRATFEVFRETGKF	not soluble
NKDLLWTTSLNIGHNKNKLTKLDGEQQEIISGVSIHRVGQPYYSIYAYEYAGVDPQTGKELYYINGEDGSRETTTNSAAANKTIIGSIEPKVQGGLTNYVSWKFIDFNLTLTYSLGGHAYDYATWLQSNGGTYHYLGNVPAYYKMEDTWQKTGDNAKLPQFAYGNANKASSRWLMSTDHLRVKNMTLGFTLPQSWSSKAGISKLRAYVSGNNLLTWKKKSLYVDPEVPVDGLCTFETPALRTVTFGLEIGF	not soluble
QDLTVKMTDLQTGKPVGTIELSQNKYGVGFIPELADLTPGMHGFHIHQNGSCASSEKDGKVVLGGAAGGHYDPEHTNKHGFPWTDDNHKGDLPALFVSANGLATNPVLAPRLTLKELKGHAIMIHAGGDNHSDMPKALGGGGARVACGVIQ	soluble
MGSDKIHHHHHHMKQIYLLLLCGVLFACKKKESLPEVQKIGHSGMGLYGDYPINSFESLMQAFLLGADGVEIDVQMTRDGILVLLHDELLDNQTNGTGAVQERTWDEISNLAYDNIALGRYNIIRLDFLLENCGPHIDKLFYFDIKPNAYSTEHLYTLNRNLSTLITKFNLEDNSVLMYQNNAQFLHMLSLRTDLTIYSYSDFNTAKKNILQYKLNGWVASINDIDESKVAQMHEIGARVVGFSTFNKNDHLNLIHKGVDIIQTDNLKNLINLYQ	not soluble
MYVENSYLSKQLCFLFYVSSKEIIKKYTNYLKEYDLTYTGYIVLMAIENDEKLNIKKLGERVFLDSGTLTPLLKKLEKKDYVVRTREEKDERNLQISLTEQGKAIKSPLAEISVKVFNEFNISEREASDIINNLRNFVSKNFDYSDKK	not soluble
MKDVSKNQEENISDTALTNELIHLLGHSRHDWMNKLQLIKGNLSLQKYDRVFEMIEEMVIDAKHESKLSNLKTPHLAFDFLTFNWKTHYMTLEYEVLGEIKDLSAYDQKLAKLMRKLFHLFDQAVSRESENHLTVSLQTDHPDRQLILYLDFHGAFADPSAFDDIRQNGYEDVDIMRFEITSHECLIEIGLD	soluble
MAHHHHHHMRRTLALYKQGRSREPNVGRLLYGKRKNLVHHASEAKPSVTAVLAQTPTERLPVAVKHALQVKELHREQIATLLKQHRALRRFDRTEVIVQALRDAKQPLTSQHYCVLMAHANDERQTRRALQFWKDAVSEGKVNERLHGALMSTYRNAGNWRAAMRHCERMWRDQQVLDPLAAHAVMNACRRYGPWQMGLKVFSDAVQHGTKPNGVVYLELLRLIAQSKMPARWMYGLAILRALEASVEVTAGHYNAVLATMGGRNWEKGIELFHSMQVHNVQPSTETLNTVQQLHPHSVSHCIRCVAEAHALGMPITDTMYRNVLLNLFRMQLNNEATQFAEREYKLDCVDAGNPLTHTLSLSVAMVDALLSHPRPHDALLVYESFQDKIGDVVAAATRQLGTSGSLEQRWLVQGRVAVVDHNVLLSTTFESLIHHYDSVFVPFASVRLLVRRARENGHSVQGLHMKTTLRRIGLLLKREEWRMLRVLPYAHQLLAHTYLSEGGPASPEALKALREEAETQSLLPESPQTPTAVAKAVSAYGQALLRRLTPVGEAAEVAGAVRADQSGERGTEDAAKNLVIREAAGGAADTGASSLVSSKAWPAATAPFPMVLHSPRRITSVERVTAVAAMLKSLNPDAEVHVLSTNASQLAAVRHWNAVRVGVLLVPVHYPDQLRQMAPPALPISEGAVAAAMAAPGFRGPKPRL	not soluble
MFRNAAELVAQAKEQNVKIAEIMIQCEMETRSISREEVIAGMEKNLVVMEQAVERGIRGVKSPTGLTGGDAVKVQAYMKSGKGLSGDTILDAVSKAVATNEVNAAMGIICATPTAGSAGTVPGVLFALREKLQPTREEMIEFLFTAGAFGMVVANNACISGAAGGCQAEVGSASGMAAAAAVEMAGGTQEQAATAMAISLKNMLGLVCDPVAGLVEVPCVKRNAAGAANAMISADLALAGVTSTIPCDEVIEAMFRIGQTMPVALRETAEGGLAATPTGRRLQEEIFGKTNN	not soluble
MHTMHIPSGDVLIPKPKLITEETDPLHIIKTRQKTHGRPVTIAGPMVRYSKLPFRQLCREYNVDIVYSPMILAREYVRNEHARISDLSTNNEDTPLIVQVGVNNVADLLKFVEMVAPYCDGIGINCGCPIKEQIREGIGCALIYNSDLLCSMVHAVKDKYGDKLRIETKIRIHEALDETVELCRKLCDAGVDWITIHGRTRRTRSSQPANLDAIKYIIENISDKNVPVIANGDCFKLSDLERITKYTGAHGVMAVRGLLSNPALFAGYTTCPWGCIEKFCYWALEFGGLPFQLAQHHLYCMLENMELKKSLLKKMMNLKNYISLIDWFNKTFEFKRYGEDGFGMGVEIPYKANSCVQRSASVVERQE	soluble
MLRCADGALYTGVSTDVARRYRQHQAGKGARYTRLNPPLAVELVIEYPDRSAALRAEHAFKRLSAAAKRDFLRAHGDAGPSSLEHHHHHH	not soluble
MAHHHHHHMQRHTVEKKLQRSTHAAECHTDVAVVRLPHVQREVRQRLVHHAARVAVDSSLRQGRHNRVGHLKGKTRRAMPSVPAAARARVAVHRLRPGHVARRVVVARAAPEHHHALRKHTVVQHLPPFLVQVAPHHKPRGRRHNRVRWKKFGKGCTSFHLTVVCKHHSGAAARQLNFLLRTWHT	not soluble
SSGIHVALVTGGNKGIGLAIVRDLCRLFSGDVVLTARDVTRGQAAVQQLQAEGLSPRFHQLDIDDLQSIRALRDFLRKEYGGLDVLVNNAGIAFKVADPTPFHIQAEVTMKTNFFGTRDVCTELLPLIKPQGRVVNVSSIMSVRALKSCSPELQQKFRSETITEEELVGLMNKFVEDTKKGVHQKEGWPSSAYGVTKIGVTVLSRIHARKLSEQRKGDKILLNACCPGWVRTDMAGPKATKSPEEGAETPVYLALLPPDAEGPHGQFVSEKRVEQW	soluble
PLRDVLDSNEFRDSKATLPIALGKDISGKPVIVDLAKMPHLLVAGSTGSGKSVGVNTMILSLLYRVQPEDVKFIMIDPKVVELSVYNDIPHLLTPVVTDMKKAANALRWCVDEMERRYQLLSALRVRNIEGFNEKIDEYEAMGMPVPNPIWRLGDTMDAMPPALKKLSYIVVIVDEFADLMMVAGKQIEELIARLAQKARAIGIHLILATQRPSV	not soluble
MSLENKMPKDFFWGNSTSSMQTEGGWNEGGKGPSVYDVNTAGRSAKDWQVTNDNYHHYSQDLDLMKEMNMNMYRFQISWSRIVPDGDGEFNEEGIAFYNRLIDDLLARGIEPMICLYHFDMPLNLAEKYNGFLSRKVKEAFVRFGQEMMKRFADKVKYWIVFNEHNLYFADGFEHYSGVLKKELTLSDMYTVFHHTMLAHCELTQFLHENFEAKIGGMLATTEIYPATFSPKDNLYLRKFDEFYNRNLCDVYAFGHYSHEVMTYVKNQNIQMDFQKGDEEILKNGISDFISFSYYRSILLDASQLTENDAPNSYLTKGMKLNPLLEHNQWDWSIDPEGFRRILSRLYNEFGLPVFPIENGIGQSEIWDGKTKIADDLRIFYHQKHLEAMKKAIFTDGVEVMGYLGWGLIDIPASSGAIDKRYGAVYVDPKSHKRIPKKSFHWFKNVFASNGDHLDEGHHHHHH	not soluble
MEPSTIVKLDVGGKIFKTTIFTLCKHDSMLKTMFCTDVPVTKNEEGSVFIDRDSKHFRLILNFLRDGQIALPDSDREVREVLAEASYFLLDPLIELCGERLEQSLNPYYHLVSTVLEARKIIFATEKPIVVLRLPVYIATSGNQSYYFSETKFRELSEEYHKHVAFILITEPEFNEDCSWSFFLRAKKITARIKGPMDCNLVEECMPKTVERRREKKTWH	not soluble
MGHHHHHHGGHMSLLRFLEVVSEHIKNLRNHIDLETVGEMIKLIDSARSIFVIGAGRSGYIAKAFAMRLMHLGYTVYVVGETVTPRITDQDVLVGISGSGETTSVVNISKKAKDIGSKLVAVTGKRDSSLAKMADVVMVVKGKMKQERDEILSQLAPLGTMFELTAMIFLDALVAEIMMQKHLTEKDLEARHAVLEEGGS	soluble
MSLILYDYFRSTACYRVRIALNLKKIAYEKIEVHLVNNGGEQHSLQYHQINPQELVPSLDINGQILSQSMAIIDYLEEIHPEMPLLPKDPFMKATLKSMALIVACDMHPLNNLRVLNRLKEQFNANEEQVLEWYHHWLKTGFDAFEEKLGALERDKPVCFGSEVGLADVCLIPQVYNAHRFHFDMASYPIINEINEYCLTLPAFHDAAPEAISSEGHHHHHH	soluble
MRCILLGSGTSTGVPEVGCHCRVCRSEDRHDKRTRTSLLIITDAGKRILIDCSPDFRQQALFAGIDSLDAVLLTHEHFDHVGGLDDLRTICWHRELAVYAEQNVLDSIRDRLHYVFRKNPYPGTPLLKLCEVKPDMPFQVADLTVEPLRIMHGRLPILGYKIGEMAFLTDMKDIAAEEIECLKSCRLLFINGLRYRKEHPSHQTIEQAIDTIGQIGNPESVLIHLSHHAPLHQEHLEILPPHIHSGYDGLEAIIDEKGIRIKDFEPHVSRSEYHYQDCGRIGYESALTLQRKLFHDAVADKLENRKPQNTLLFCEHEPVLTLGKHGHEENLLLSESELKSRDIRLFHIERGGDITYHGPGQITGYPIFDLEQYGIGLRSYIEMLEQCIIDLIAIFGLKGERSAGASGVWLDPDIPGRTRKICAIGVKSSRHITMHGFALNVNTDLDYFKLINPCGFSDRGVTSISRELGREQDFILVKQQLEAVFRRNFGAL	not soluble
MILDADIKTQLSQYLQLMENDILLKVSAGNDDVSKDMLALVDELATMSSKITVEKVELERTPSFSVNRPGEDTGVVFAGIPLGHEFTSLVLALLQVSGRAPKVEQKLIDQIKNIQGEYHFESYISLSCHNCPDVVQALNVMSVLNSGITHTMIDGAAFKEEVESKDIMAVPTVFLNGESFGSGRMTLEEILAKMGNGPDASELSDKDPYDVLVVGGGPAGASAAIYAARKGIRTGIVAERFGGQVMDTMGIENFISVKRTEGPKLVASLEEHVKEYDIDVMNLQRAKRLEKKELIEVELENGAILKSKSVIVSTGARWRNVGVPGEAEFKNKGVAYCPHCDGPLFTGKDVAVIGGGNSGIEAAIDLAGIVKHVTVLEFMPELKADAVLQERLNSLPNVTVLKNVQTKEITGTDKVNGISYIDRETEEVHHVELQGVFVQIGLVPNTDWLGETVERVRGEIVTDKHGATNVPGVFAAGDCTNNPYKQIIISMGSGANAALGAFDYLIRN	not soluble
MSLYVPGKQVTLAHIIASPNKEIYTKLGLPEGTSNALGILTITPSEAAIIAVDIATKSGDIQIGFIDRFSGSVVISGDVSSVEAALQAVIEGLQQILNFSVTCKEGHHHHHH	not soluble

Reference: the DeepSol protein solubility set
